Where two headings read alike, the source gives them in different places. Blank lines part the entries; values can stand above or below the binder they belong to.
Tests used:
[1] = target: T1, human PCSK9 with a C-terminal myc-myc-hexahistidine tag (human, UniProt Q8NBP7 31-692, limits assumed); test: cell-based or functional assay
[2] = target: T1, human PCSK9 with a C-terminal …; test: cell-based or functional assay; remark: listed apart in the source
[3] = target: T2, human PCSK9 with a C-terminal myc-myc hexahistidine tag and a D374Y mutation (human, UniProt Q8NBP7 31-692, limits assumed); test: cell-based or functional assay
[4] = target: T3, recombinant cynomolgus monkey PCSK9 with a C-terminal myc-myc hexahistidine tag (cynomolgus monkey, UniProt A8T662 31-692 (Macaca nemestrina entry), limits assumed); test: cell-based or functional assay
[5] = target: T1, human PCSK9 with a C-terminal …; test: SPR 25C, purified mAb captured
Procedure: (§1) A Biacore CM4 sensor chip was derivatized with a monoclonal mouse anti-human Fc antibody to capture human antibodies. The histidine substitution variant anti-PCSK9 antibodies were captured onto the anti-human Fc sensor surface from culture medium after transient expression in Chinese hamster ovary (CHO) cells. […] Kinetic association (kₐ) and dissociation (kd) rate constants were determined by processing and fitting the data to a 1:1 binding model using Scrubber 2.0 curve fitting software. Binding dissociation equilibrium constants (KD) and dissociative half-lives (t_{1/2}) were calculated from the kinetic rate constants as: KD (M)=kd/kₐ; and t_{1/2} (min)=(In2/(60*kd).
(§2) Also included in these experiments were several control/comparator antibodies. All measurements were taken at 25° C.

[6] = target: T1, human PCSK9 with a C-terminal …; test: SPR 25C pH 7.4, purified mAb captured
Procedure: as §1
All measurements were taken at 25° C.

[7] = target: T1, human PCSK9 with a C-terminal …; test: SPR 25C pH 6.0, purified mAb captured
Procedure: as §1, §2

[8] = target: T1, human PCSK9 with a C-terminal …; test: blocking ELISA, hPCSK9-mmH vs coated hLDLR EGFA-hFc
Procedure: (§3) Briefly, hLDLR EGFA-hFc was coated at 2 μg/mL in PBS on a 96-well microtiter plate overnight at 4° C. followed by blocking with a solution of 0.5% (w/v) BSA in PBS.
(§4) The equilibrated sample solutions were then transferred to a LDLR EGFA-hFc coated plate.

[9] = target: T1, human PCSK9 with a C-terminal …; test: blocking ELISA pH 7.2, 500 pM hPCSK9-mmH vs coated hLDLR EGFA-hFc
Procedure: as §3, §4

[10] = target: T1, human PCSK9 with a C-terminal …; test: blocking ELISA pH 5.75, 500 pM hPCSK9-mmH vs coated hLDLR EGFA-hFc
Procedure: as §3, §4

[11] = target: T1, human PCSK9 with a C-terminal …; test: blocking ELISA pH 7.2; actual obtained value, below theoretical bottom of the assay
Procedure: as §3, §4

[12] = target: T1, human PCSK9 with a C-terminal …; test: blocking ELISA pH 5.75; actual obtained value, below theoretical bottom of the assay
Procedure: as §3, §4

[13] = target: T1, human PCSK9 with a C-terminal …; test: SPR (Biacore), 37 °C; antibody captured on anti-human Fc surface, hPCSK9-mmH injected (3.125-50 nM); association at pH 7.4, dissociation at pH 6.0
Procedure: (§5) A Biacore CM4 sensor chip was derivatized with a Fab′2 polyclonal anti-human Fc antibody to capture human antibodies. […] Dissociation (kd) rate constants were determined by processing and fitting the data using Scrubber version 2.0 curve fitting software. Dissociative half-lives (t_{1/2}) were calculated from the dissociation rate constants as: t_{1/2} (min)=(In2/kd)/60.

[14] = target: T1, human PCSK9 with a C-terminal …; test: SPR (Biacore), 37 °C; antibody captured on anti-human Fc surface, hPCSK9-mmH injected (3.125-50 nM); association at pH 7.4, dissociation at pH 7.2
Procedure: as §5

[15] = target: T1, human PCSK9 with a C-terminal …; test: SPR (Biacore), 37 °C; antibody captured on anti-human Fc surface, hPCSK9-mmH injected (3.125-50 nM); association at pH 7.4, dissociation at pH 7.4
Procedure: as §5

[16] = target: T1, human PCSK9 with a C-terminal …; test: SPR (Biacore), 37 °C; antibody captured on anti-human Fc surface, hPCSK9-mmH injected (3.125-50 nM); association at pH 7.4, dissociation at pH 5.75
Procedure: as §5

[17] = target: T1, human PCSK9 with a C-terminal …; test: SPR 25C, mAb captured;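 also: biacore CM4 surface bearing anti-human Fc antibody capturing the mAbs, PCSK9 binding and release rates fitted with a one-to-one model, KD and half-life derived from those rates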
Procedure: as §1

[18] = target: T2, human PCSK9 with a C-terminal myc-myc …; test: cell-based or functional assay; remark: listed apart in the source
[19] = target: T3, recombinant cynomolgus monkey PCSK9 …; test: cell-based or functional assay; remark: listed apart in the source
[20] = target: T1, human PCSK9 with a C-terminal …; test: SPR 25C pH 7.2, mAb captured;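 also: biacore SPR, antibodies captured on anti-human Fc CM4 chip with PCSK9 flowed as analyte, rate constants from a one-to-one kinetic fit, KD and half-life derived from them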
Procedure: as §1

[21] = target: T1, human PCSK9 with a C-terminal …; test: SPR 25C pH 5.75, mAb captured;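 also: biacore surface with anti-human Fc antibody capturing the antibodies, PCSK9 as analyte, one-to-one kinetic fit, KD as kd over ka, half-life derived from kd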
Procedure: as §1

[22] = target: T1, human PCSK9 with a C-terminal …; test: SPR 25C pH 7.2, mAb captured; pH 7.2, 25 C;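 as to t½: biacore SPR, antibodies captured on anti-human Fc CM4 chip with PCSK9 flowed as analyte, rate constants from a one-to-one kinetic fit, KD and half-life derived from them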
Procedure: as §1

[23] = target: T1, human PCSK9 with a C-terminal …; test: blocking ELISA pH 7.2, 500 pM hPCSK9-mmH vs coated hLDLR EGFA-hFc, exp #1
Source text: (§6) The equilibrated sample solutions were then transferred to the LDLR EGFA-hFc coated plate prepared as described above.

[24] = target: T1, human PCSK9 with a C-terminal …; test: blocking ELISA pH 7.2, 500 pM hPCSK9-mmH vs coated hLDLR EGFA-hFc, exp #2
Source text: as §6

[25] = target: T1, human PCSK9 with a C-terminal …; test: SPR (Biacore), 37 °C; antibody captured on anti-human Fc surface, hPCSK9-mmH injected (3.125-50 nM); association at pH 7.4, dissociation at pH 6.0; remark: listed apart in the source
Procedure: (§7) All experiments were carried out at 37° C.
as §5

[26] = target: T1, human PCSK9 with a C-terminal …; test: SPR (Biacore), 37 °C; antibody captured on anti-human Fc surface, hPCSK9-mmH injected (3.125-50 nM); association at pH 7.4, dissociation at pH 7.2; remark: listed apart in the source
Procedure: as §5

[27] = target: T1, human PCSK9 with a C-terminal …; test: SPR (Biacore), 37 °C; antibody captured on anti-human Fc surface, hPCSK9-mmH injected (3.125-50 nM); association at pH 7.4, dissociation at pH 7.4; remark: listed apart in the source
Procedure: as §7, §5

[28] = target: T1, human PCSK9 with a C-terminal …; test: SPR (Biacore), 37 °C; antibody captured on anti-human Fc surface, hPCSK9-mmH injected (3.125-50 nM); association at pH 7.4, dissociation at pH 5.75; remark: listed apart in the source
Procedure: as §7, §5

[29] = target: T1, human PCSK9 with a C-terminal …; test: blocking ELISA, hPCSK9-mmH vs coated hLDLR EGFA-hFc; non-blocking at pH 5.75
Procedure: as §3, §4

[30] = target: T1, human PCSK9 with a C-terminal …; test: SPR (Biacore), 37 °C; antibody captured on anti-human Fc surface, hPCSK9-mmH injected (3.125-50 nM); association at pH 7.4, dissociation at pH 6.0; remark: listed apart in the source
Procedure: as §5

[31] = target: T1, human PCSK9 with a C-terminal …; test: SPR (Biacore), 37 °C; antibody captured on anti-human Fc surface, hPCSK9-mmH injected (3.125-50 nM); association at pH 7.4, dissociation at pH 7.2; remark: listed apart in the source
Procedure: as §7, §5

[32] = target: T1, human PCSK9 with a C-terminal …; test: SPR (Biacore), 37 °C; antibody captured on anti-human Fc surface, hPCSK9-mmH injected (3.125-50 nM); association at pH 7.4, dissociation at pH 7.4; remark: listed apart in the source
Procedure: as §5

[33] = target: T1, human PCSK9 with a C-terminal …; test: SPR (Biacore), 37 °C; antibody captured on anti-human Fc surface, hPCSK9-mmH injected (3.125-50 nM); association at pH 7.4, dissociation at pH 5.75; remark: listed apart in the source
Procedure: as §5

IC50, LDL uptake in HepG2 cells, 100 nM hPCSK9-mmH [1]: 31 nM
IC50, LDL uptake in HepG2 cells, 50 nM hPCSK9-mmH [2]: 7.8 nM
IC50, LDL uptake in HepG2 cells, 2 nM hPCSK9-D374Y-mmH [3]: 2 nM
IC50, LDL uptake in HepG2 cells, 50 nM MfPCSK9-mmH [4]: 10.3 nM
KD ratio pH 6.0/pH 7.4 [5]: 0.41
ka ratio pH 6.0/pH 7.4 [5]: 1.3
kd ratio pH 6.0/pH 7.4 [5]: 0.53
t½ ratio pH 6.0/pH 7.4 [5]: 1.89
Kd [6]: 0.616 nM
koff [6]: 0.000308 s⁻¹
kon [6]: 499000 M⁻¹ s⁻¹
t½ [6]: 37.6 min
Kd [7]: 0.25 nM
koff [7]: 0.000162 s⁻¹
kon [7]: 649000 M⁻¹ s⁻¹
t½ [7]: 71.1 min
IC50 ratio (pH 5.75/pH 7.2) [8]: 1.8
IC50 [9]: < 0.125 nM
IC50 [10]: < 0.125 nM
IC50 [11]: 0.064 nM
IC50 [12]: 0.113 nM
t½ (dissociative half-life) [13]: 13 min
t½ (dissociative half-life) [14]: 13.8 min
t½ (dissociative half-life) [15]: 7 min
t½ (dissociative half-life) [16]: 27.8 min
B1: 316P(v1) (antibody, IgG1, V domains shown)
VH: EVQLVESGGGLVQPGGSLRLSCAASGFTFNNYAMNWVRQAPGKGLDWVSTISGSGGTTNYADSVKGRFIISRDSSKHTLYLQMNSLRAEDTAVYYCAKDSNWGNFDLWGRGTLVTVSS
VL: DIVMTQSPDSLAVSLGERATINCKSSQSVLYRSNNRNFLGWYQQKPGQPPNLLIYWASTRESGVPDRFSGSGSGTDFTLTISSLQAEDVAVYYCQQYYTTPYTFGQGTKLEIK
notes: also called 316(v1)

KD ratio pH 5.75/pH 7.2 [17]: 4.34
t½ ratio pH 5.75/pH 7.2 [17]: 0.1
IC50, LDL uptake in HepG2 cells, 2 nM hPCSK9-D374Y-mmH [18]: 2.7 nM
IC50, LDL uptake in HepG2 cells, 50 nM MfPCSK9-mmH [19]: 12.7 nM
IC50, LDL uptake in HepG2 cells, 100 nM hPCSK9-mmH [1]: 32 nM
t½ [20]: 35 min
Kd [21]: 9.59 nM
t½ [21]: 3.4 min
KD ratio pH 6.0/pH 7.4 [5]: 6.64
ka ratio pH 6.0/pH 7.4 [5]: 1.26
kd ratio pH 6.0/pH 7.4 [5]: 8.35
t½ ratio pH 6.0/pH 7.4 [5]: 0.12
Kd [6]: 1.06 nM
koff [6]: 8.98e-05 s⁻¹
kon [6]: 84700 M⁻¹ s⁻¹
t½ [6]: 129 min
Kd [7]: 7.04 nM
koff [7]: 0.00075 s⁻¹
kon [7]: 107000 M⁻¹ s⁻¹
t½ [7]: 15.4 min
Kd [22]: 2.21 nM
IC50 ratio (pH 5.75/pH 7.2) [8]: 5.5
IC50 [9]: 0.319 nM
IC50 [10]: 1.75 nM
IC50 [23]: 0.349 nM
IC50 [24]: 0.395 nM
t½ (dissociative half-life) [25]: 3.5 min
t½ (dissociative half-life) [26]: 42 min
t½ (dissociative half-life) [27]: 36 min
t½ (dissociative half-life) [28]: 2.8 min
B2: VH-D106H (antibody, V domains shown)
VH: EMQLVESGGGLVQPGGSLRLSCAASGFTFSSHWMKWVRQAPGKGLEWVANINQDGSEKYYVDSVKGRFTISRDNAKNSLFLQMNSLRAEDTAVYYCARDIVLMVYHMDYYYYGMDVWGQGTTVTVSS
VL: not shown
notes: His variant of 300N

KD ratio pH 6.0/pH 7.4 [5]: 15.7
ka ratio pH 6.0/pH 7.4 [5]: 1.79
kd ratio pH 6.0/pH 7.4 [5]: 28.4
t½ ratio pH 6.0/pH 7.4 [5]: 0.04
Kd [6]: 2.68 nM
koff [6]: 0.000278 s⁻¹
kon [6]: 104000 M⁻¹ s⁻¹
t½ [6]: 41.5 min
Kd [7]: 42.1 nM
koff [7]: 0.0079 s⁻¹
kon [7]: 186000 M⁻¹ s⁻¹
t½ [7]: 1.5 min
IC50 [9]: 0.354 nM
IC50 [24]: 0.461 nM
IC50 ratio (pH 5.75/pH 7.2) [29]: > 500
t½ (dissociative half-life) [30]: 0.2 min
t½ (dissociative half-life) [31]: 8.9 min
t½ (dissociative half-life) [32]: 8.7 min
t½ (dissociative half-life) [33]: 0.1 min
B3: VH-D106H/VK-L30H (antibody, IgG4, V domains shown)
VH: B2 VH
VL: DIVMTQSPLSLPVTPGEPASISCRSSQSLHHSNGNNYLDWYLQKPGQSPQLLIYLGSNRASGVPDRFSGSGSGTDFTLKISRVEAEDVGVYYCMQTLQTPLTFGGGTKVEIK
notes: double His variant of 300N; also called VH-D106/VK-L30H; VH-D016H/VK-L30H
